# Laboratory results reported in the nanobody polyreactivity screen of Harvey et al. (2022).
# Assay: yeast display, Sf9 membrane polyspecificity reagent, FACS + sequencing; frameworks hold sequencing errors
# Method in brief: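 Polyreactivity labels are assigned by the sorting gate from which each nanobody was recovered. The gates were low and high (top ~1%), set on anti-HA fluorescence for expression and streptavidin fluorescence for reagent binding. Before sorting, galactose-induced (36–48 hours) yeast display cells were stained for 1 hour at 4 °C with 10% biotinylated, detergent-solubilized Sf9 membrane reagent.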
row,Sequence,polyreactivity (PSR sort gate)
1,QVQLVESGGGLVQAGGSLRLSCAASGLTSKFYAMGWYRQAPGKERELVAAISGSGGSTYYADSVKGRFTISRDKAKNTVYLQMNSLKPEDTAVYYCAARYFGLRYYYWGQGTQVTVSS,high polyreactivity
2,QVQLVESGGGLVQAGGSLRLSCAASGRIFSQYAMGWYRQAPGKARELVAAITKSGGSTYYADSVKGRFTISRDKAKNTVYLQMNSRKPEETAVYYCAKLRSSRDYDYWGQGTQVTVSS,high polyreactivity
3,QVQLVESGGGLVQAGGSLRLSCDPSGRIFNRYAMGWYRQAPGKERELVAAITSGGDTNYADSVKGRFTISRDNAKNTVYLQMNSLKQEDTAVYYCNARSRGRASGYDYWGQGTQVTVSS,high polyreactivity
4,QVQRVASGGGLVQAGGSLRLSWAASGSIVVRYTMGWYRQAPGKERELVAGISSRGGSTYYADSVKGRFTISRDNAKNTVSLQLNSLTPEDTAVYYCAKERSYSRSGGTYYYWGQRTQVTVSS,high polyreactivity
5,QVQLVESAGGLVQAGGSLRLICDASGSTFGYYAIGWYRQAPGKEREVVAVINKSGGRTYYADSVKGRFTISRDNAKNTVYLQMNSLNPVDTAVYFCATRVTSTRHDYWGQGTQVTVSS,high polyreactivity
6,QVQLVESGGGLVQAGGSLRLSCAASGRIFVYNAMGWYRQAPGKERELVASISWSGDSTYADSVKGRFTISRDNAKNTVYLQMNSLKPEDTAVYYCAADNGSKEFDYWGQGTQVTVSS,low polyreactivity
7,QVQLVESGGGLVQAGGSLRLCCAAYGRTFRGNAMRLYTQAPGKERELVAVITSGDSTYYADSVKGRFTNSRDNAKNTVYLQMNSLKPEDTAVYYCAAYLWKSKRKLDYWGQGTQVTVTS,high polyreactivity
8,QVQLVESGGGLVQAVVSLRLSCAASGSIFGGYAMGWYRQAPGKERELVAAISYRGASTYYADSVKGRFTISRDNAKNTVYLQMNSLKPEDTAVYYCAVAARTRARVLYGYDYWGQGTQVTVSS,low polyreactivity
9,QVQLVESGGGLVQAGGSLRLSCAASGYIFSVYAMGWYRQAPGKERELVAAISSGGSTYYADSVKGRFTISRDNAKNTVYLQMNSLKPEDTAVYYCAAESEYVYWYYVDYDYWGQGTQVTVSS,high polyreactivity
10,QVQLVESGGGLVQAGGSLRLSCAASGIIFTNYGMGWYRQAPGKERELGAVISRRGGSTYYADSVKGRFTISRDNAKNTVYLQMNSLKPEDTAVYYCNTRTQGAKQYTGYDYWGQGTQVTVSS,high polyreactivity
11,QVQLVESGGGLVQAGGSLRLSCAASGSIFTKYAMGWYRQAPGKERELVAGISRTTGSTYYADSVKGRFTISRDNAKNTVYLQMNSLKPEDTAVSYCNAVYGHGNYFRSEDDYWGQGTQVTVSS,high polyreactivity
12,QVQLVESGGGLVQAGGSLRLSCAASGRIITFNPMGWYRQAPGKERELVAAISSRGDGTYYADSVKGRYTISRDNAKNSFYVQMNSLKPEDTAVYYCARYPDDYYDWGYDYWGHGTQVTVSS,low polyreactivity
13,QVQLVESGGGLVQAGGSLRLSCAASGFIFTANAMGWYRQAPGKERELVAAINWSDGGTYYADSVKGRFTISRDNAKNTVYLQMNSLKPEDTAVYYCNAQWAWTYYYWGQGTQVTVSS,low polyreactivity
14,QVQLVESGGGLVQAGGSLRLSCAASGIIIQRNAMGWYRQAPGKERELVAAISIGGGSTYADSVKGRFTISRDNAMNTVYLQMNSLKPEDTAVYYCAADYSGASVLMDYWGQGTQVTVSS,low polyreactivity
15,QVQLVESGGGLVQAGGSLRLSSAASGNIFPAYPMGWYRQAPGKERELVAAISKSGGRTYYADSVKGRFTISRDNAKNTVYLQMNSLKPEDTAVYYALLTVLRAVPYSVRYDYWGQGTQVTVSS,high polyreactivity
16,QVQLVESGGGLVQAGGSLRLSCAASGLILSSNAMGWYRQAPGKERELVATISWSGDSTYYADSVKGRFTISRDNAKNTVYLQMNSLKPEDTAVYDCNADHFQWGAGYDYWGQGTQVTVSS,low polyreactivity
17,QVQLVESGGGLVQAGGSLRLSCAASGSISYFYAMGWYRQAPGKERELVADINSGDDTYADSVKGRFTISRDNAKNTVYLQMNSLKPEDTAVYYCSVKYGGYESHYYRRPHYDYWGQGTQVTVSS,low polyreactivity
18,QVHLVESGGGLVQAGGSLRLSCAASGSIFTPYAMGWYRQAPGKERELVATISWSGGRTYYADSVKGRFTISRDNAKNTVYLQMNSLKPEDTAVYYCAARGYSSEYDYWGQGTQVTVSS,high polyreactivity
19,QVQLVESGRGLVQAGGSLRLSCAASGRIFRVNAMGWYRQAPGKERELVAAISWGGGSTYYADSVKGRFTISRDNAKNTVYLQMNSLKREDTAVYYCATTLVKSQSRYYYWGQGTQVTVSS,high polyreactivity
20,QVQLVESGGGILQAGGSLRLSCAASGLTFPWYAMGWYRLAPGKERELVAAITHSDGNTYADSVKGRFTISRDKAKNTVYLQMNSLKPEDTAVYYCATDTRSQAYYYWGQGTQVTVSS,low polyreactivity
21,QVQLVESGGGIVQAGGSLRLSCAASGYTFGTYAMGWYRQAPGKERELVAAITSTGGRTYYADSVKGRFTISRDNAKNTVYLQMNSLKPEDTAVYYCAAERVYRTIWHYPYYYWGQGTQVTVSS,high polyreactivity
22,QVQLVESGGGLVQAGGSLRLSCAASGSTIATYAMGWYRQAPGKERELVATISSSGSGTYYADSVKGRFTISRDNAKNTVYLQMNSLKPEDTAVYYCAVDSRGKLGISGEYGYWGQGSQVTVSS,low polyreactivity

row,Sequence,polyreactivity (PSR sort gate)
1,QVQLVESGGGLVQAGGSLRLSCAASGSTFLYYAMGWYTQAPGKERELVAAITVRGGNTYYADSVKGRFTISRDNAKNTVYLQMNSLKPEDTAVYYCAARAYYSFRYDYWGQGTQVTVSS,high polyreactivity
2,QVQLVESGGGLVQAGGSLRLSCAASGSTFYFNAMGWYRQAPGKERELVAVIDGSGGFTYDADSVKGRFTISRDNAKNTVYLQMNSLKPEDTAVYYCNADLVYNTFIYSGGDEYDYWGQGTQGTVSS,high polyreactivity
3,QVQLVESGGGLVQAGGSLRLSCASSGRTFGINAMGWYRQAPGKERELVAVISFGDGGTYYADSVKGRFTISRDNAKNTVYLQMNSLNPEDSAVYYCATDYQSTSVWGGHFVINPYDYWGQGTQVTVSS,low polyreactivity
4,QVQLVETGGGLVQAGGSLRLSCAASGLTFDENAMGWYRQAPGINYSGASTYYADSVKGRFTISRDNAKNTVYLQMNSLKPEDTAVYYCAAEVVAQMNYWGQGTQVTVSS,low polyreactivity
5,QVQLVESGGGLVQAGGSLRLSCAASGRTFWYYTMGWYRQAPGKERELVASITYRGGSTYYADSVKGRFTISRDNAKNNVYLQMNSLKPEDTAVYYCNARYKRYSYDYWGQGTQVTVSS,high polyreactivity
6,QVQLVESGGGLVQAGGSLRLSCAASGRTFTSNAMGWYRQAPGKESELVAVITTSGDRTFYADSVKGRFTISRDNAKNTVYLQMNSLKPEDTAVYYCAADVRLTRGFDYWVQGTQVTVSS,high polyreactivity
7,QVQLVESGGGLVQAGGSLRISCAASGFIFRSYAMGWDRKAPGKERELVAAITRSGGSTYYADSVKGRFTISRDNAKTTVYLQMNSLKPEDTAVYYCATRRYWYYILDYGGQGTQVTVSS,high polyreactivity
8,QVQLVESGGGLVQAGGSLRLICAASGITFVYYAMGWYRQAPGKERELVAAISKNSGSTYYADSVKGRFTISRDNAKNTVYLQKNSLNPEDTAVYYCAAEEGYPWVRYNYWGQGTQVTVSS,high polyreactivity
9,QVQLVESGGGLVQAGGSLRLSCAASGRIFSSYAMGWYRKAPGKERELVAAISGSGGRTYYADSVKGRFTISRDNAKNTVYLQMNSLKPEDTAVYYCNARRRSPYSTGVAYDYWGQVTQVTVSS,high polyreactivity
10,QVQLVESGGGLVQAGGSLRLSCAASGSIIQYYAMGWYRQAPGKERELVASITWSGGSTYYADSVKGRFTISRDNAKNTVFLQMNSLKPEDTAVYYCAKRLYLKTWAASTADDYWGQGTQVTVSS,low polyreactivity
11,HVQLVESGAGLVQAGGSLRLSCAASGSIFGFYAMGWYRQAPGKERELVAAISSSGDSTYADSVKGRFTISRDNAKNTVYLQMNSLKPEDTAVYYCAADEDSRNWGQGTQVTVSS,high polyreactivity
12,QVHLVESGGGLVQAGGSLRLSCAASGSIFEENAMGWYRQAPGKERELVAVISTRDGRTYYADSVKGRFTISRDNAKNTVYLQMNSLKPEDTAVYYCAASPDPYWRRMDYWGQGTQVTVSS,high polyreactivity
13,QVQLVESVGGLVQAGGSLRLSCAASGFIILINVMGWYRKAPGKERELVAVITGGGTTNYADSVKGRFTISRDNAKNTVYLQMNSLKPEDTAVYYCAVDAGAGDNDYWGQGTQVTVSS,low polyreactivity
14,QVQLVESRGGLVQAGGSLRLSCAASGFIFYWNAMGWYRQAPGKEREFVATITWSGGSTYYADSVKGRFTISRDNAKNTVYLQMNSLKPEDTAVYYCNADVTWEDDYCGQGTQVTVSS,low polyreactivity
15,QVQLVESGGGLVQPGGSLRLSCAASGRTFRWYAMGWYRQEPGKERELVAAISAGGGSTYYADSVKGRFTISRDNAKYTVSLQLTRVKPEDTAVYYCNRVAWNYGFGSSAYGYWGQGTQVTVSS,high polyreactivity
16,QFQLVESGGGLVQAGGSLRLSCAASGSIFVYNVMGWYRQAPGKERELVAAITYSGGGTYYADSVKGRFTISRDTAKNTVYLQMNSLKPEDTAVYYCAAAYPSVAYSYRYDYWGQGTQVTVSS,high polyreactivity
17,QVQLVESGGGLVQAGGSLSLTCAASGSSFWPYAMGWYRQAPGKELELVAASTTRDGSTYYADSVKGRFTISRDNAKNTVYLQMISLKTEDTAVYYSAAVVLRDGWWGYYYWGQGTQVTVSS,high polyreactivity
18,QVQLVESGGGLVQAGGSLRLSCAASGRIFYPNAMGWYRQAPGKERELVASISRGGPTSYADSVKGRFTISRDNAKNTVYLQINSLKPEDTAVYDCAADVAWYRYRSYYWGQGTQVTVSS,high polyreactivity
19,QVQLVESGGGLVQAGGSLRLSCAASGSTIRYYAMGWYRQAPGKERELVAAITSSGTSTYYADSVKGRFTISRDNAKNTVDLQMNRLKPEDTAVYYCAARPVYKWVSSRYDYWGQGTQVTVSS,low polyreactivity
20,QVQIVESGGGLVQAGRSLRLSCAASGSTFEFYAMGWYRQAPGKEREFVAGITSSGVTTYYADSVKGRFTISRDNAKYTVYLQMNSLKPVDTAVYYCAATDVVYSWFFLVYIPYDYWGQGTQVTVSS,low polyreactivity
21,QVQLVESGGGIVQAGGSLSLTWAASGSTFAYYAMGRYRQAPGKERELVAAISSSGGRTYYADSVKWRFTISRDNAKNTVYLQMIMLKPEDSAVYYCWGQATQVTVSS,low polyreactivity
